Square brackets hold non-standard residues; d marks the D form. Ends that are not written are not given here.
Target: the molecule itself
Experiment: solid-state (MAS) NMR of fibrils; synthetic peptide aggregated at 1 mg/mL in PBS pH 7.4 at 37 °C, harvested by centrifugation after 2-3 weeks; 1H-15N HETCOR, 13 kHz MAS, 275 K

B1: K2Q11pGQ11K2 polyQ peptide (peptide)
peptide: KKQQQQQQQQQQQ[dP]GQQQQQQQQQQQKK
modifications: also: two sequential Gln uniformly 13C,15N labelled, positions not given here
notes: written out from the printed formula K2Q11pGQ11K2; p is D-proline; also called polyQ model peptide; source: synthetic peptide (Yale University peptide facility)
binding result: binds
